Key:
[1] = tested on: HIV-1 Ba-L; experiment: Infection of PBMC with HIV-1 strain Ba-L (Example VI); type: cell-based; conditions: PHA-stimulated PBMCs, 2 h infection; versus 100 μM control peptide; SEQ 4 and 44: 100-50-10 μM, SEQ 127: 1 μM-100-10 nM
Experimental: This example is illustrated in FIG. 12. […] 4 (CSFINT), 44 (RDKVKK) and the complete gp120 region SEQ ID NO.127 (CSFNITTEIRDKVKK), where the entry experiment is performed with two strains of HIV-1 on peripheral blood cells (PBMCs) derived from healthy donors. In particular, strain III B uses CXCR4 as a co-receptor (X4) and Ba-L uses CCR5 (R5). […] In the graphs the percent inhibition of infection due to the peptides is shown, as compared to infection in the presence of 100 μM of a control peptide. PHA-stimulated PBMCs have been incubated with the peptides and immediately infected for 2 h at 37° C. This incubation time is sufficient to evaluate virus entry, by detecting the presence of early viral transcripts into the cytoplasm of infected cells. The peptide concentrations are as follows: SEQ ID NO.4 and 44: 100-50-10 μM; SEQ ID NO. 127: 1 μM-100-10 nM. In FIG. 12A is represented the effect of the peptides on the basal infection of both viral strains, in FIG. 1 2B the effect of the peptides on the infection following incubation with rTAT7 nM. A peptide-dependent inhibition of the basal infection by both HIV-1 strains is present already in the basal infection, reflecting the presence of TAT in the viral supernatants. In particular, these peptides are more efficient in reducing the basal infection by HIV-1 Ba-L than III B, reaching an inhibition from about 40% (SEQ ID NO. 44 and 127) to 70% (SEQ ID NO. 4). After cell incubation with 7 nM rTAT, the peptides have an enhanced efficacy in inhibiting the infection, and all of them show a dose-response effect, with similar outcomes on infections by both viral strains, confirming that their activity is related to the amount of membrane-bound TAT.
Cell cultures. U937 and C8166 cells were cultured in RPMI -1640 medium supplemented with 10% heat inactivated FCS; Phoenix cells were cultured in DMEM supplemented with 10% FCS; 293T cells were cultured in Iscove's medium supplemented with 10% FCS. […]
Infection with wild type HIV-1. […] Amplified DNA was analyzed by Southern blot hybridization with a ^32P-labeled probe, and quantified by densitometry. […]

[2] = molecular target: recombinant TAT86 III B (rTAT) (HIV-1 strain III B) (UniProt P04608)
[3] = tested on: TAT+/gp120-LV entry into C8166 cells; experiment: TAT+/gp120-LV entry into C8166 cells after co-culture with U937/TAT cells (Examples IV and V); type: cell-based, HIV-1; conditions: 4 h co-culture with U937/TAT cells; without protease inhibitors
Experimental: (§1) Transduction with HIV-1 -derived lentivirus. Vector stocks were prepared by transient co-transfection of 293T cells with the following combinations of plasmids: pRRL.hPGK.GFP.SIN-18+pCMV.DR8.2+pMD.G (Naldini et al. (1996), supra) (VSV-G-LV) or pEnvHXB (Huang et al., J. Virol. 72 (1998), 8952-8960) (TAT+/gp120-LV); pRRL.hPGK.GFP.SIN-18+pCMV.DR8.74 +pRSV-Rev ((Dull et al. (1998), supra)+pEnvHXB (TAT/gp120 -LV). Vector concentration was determined by HIV-1 p24 Core profile ELISA following the manufacturer's instructions. The entry experiments were conducted on 10^5 cells per well of a 48-well plate in the presence of 8 μg/ml polybrene. The number of GFP-positive cells was analysed by FACS.

[4] = molecular target: T1, recombinant TAT protein (Human immunodeficiency virus type 1 group M subtype B, UniProt P69697, G61N/P58A/P59H/S77P/V67A); experiment: Binding of selected phage to rTAT-coated microwells; parameters: species or system HIV-1; conditions: single phage clones; BSA and insertless phage FdTet as negative controls
T1 construct: TAT86 (full-length); purchased The Centralized facility for AIDS Reagents, National Institute for Biological Standards and Controls (donor Immunodiagnostic)
Source text: For this assay, we have tested single phage clones for binding rTAT-coated microwells, using an unrelated protein, the Bovine Serum Albumin (BSA), as a negative control. The result is shown in the graph, where ‘Transducing Units’ is a parameter indicating the number of bound phage. Binding of the phage to an insertless phage, FdTet, is shown as a negative control.

[5] = molecular target: TAT present in the viral supernatant of HIV-1 Ba-L (HIV-1 strain Ba-L); experiment: cell-based or functional assay
[6] = tested on: TAT+/gp120-LV entry into C8166 cells; experiment: Effect of rTAT pre-incubation on TAT+/gp120-LV entry into C8166 cells; type: cell-based, HIV-1; conditions: C8166 cells pre-incubated with rTAT for 15 min
Experimental: This effect is reverted if the cells are pre-treated with Heparanase Ill. […] Again, this effect is reverted by pre-treating the cells with Heparanase IlI (FIG. 3B). To investigate the specificity of this effect, we have used lentiviral vectors pseudotyped with a different envelope, i.e. Vescicular Stomatitis Virus-G (VSV-G-LV), to transduce C8166 cells after co-culture with U937/TAT cells for different incubation times, or with the different U937/TAT clones for 2 h. […] Therefore, the increase in cell entry is strictly dependent not only on surface-bound TAT, but also on the presence of gp120. […]
as §1

[7] = tested on: TAT/gp120-LV entry into C8166 cells; experiment: Effect of GST-TAT variants on TAT-/gp120-LV entry into C8166 cells; type: cell-based, HIV-1; conditions: C8166 cells incubated with 7 μM GST-TAT variant for 15 min; compared to wild-type TAT86
Experimental: as §1

[8] = molecular target: gp120 (Human immunodeficiency virus type 1 group M subtype B, UniProt P03375); conditions: GST-fusion TAT HXB2 variants
Source text: The following TATHXB2 variants were produced as GST-fusion proteins as described (Mitola, S. et al. Identification of specific molecular structures of human immunodeficiency virus type 1 TAT relevant for its biological effects on vascular endothelial cells. J Virol 74, 344-53 (2000): TAT86 (full-length), TAT72 (product of TAT first exon), TATBasMut (with the mutations R-49,52,53,55,56,57-A), TATCysMut (with the mutations C-22,25,27-A.

## CSFNITTEIRDKVKK [SEQ ID NO. 127, Synthetic peptide corresponding to the selected region of gp120]
[1]
  percent inhibition of basal infection: about 40%

## recombinant gp120 III B protein
[2]
  Kd: 8 nM

## RDKVKK [SEQ ID NO. 44]
[1]
  percent inhibition of basal infection: about 40%
[3]
  blocking of virus entry at a concentration lower than 100 μM: inefficient

## CTVECYFNCTPTC [SEQ ID NO.2, phage insert selected from CX3CX3CX3C Phage Display library, tested as phage]
[4]
  phage binding to rTAT-coated microwells: specifically bind recombinant TAT protein

## soluble peptide SEQ ID NO. 4 (CSFNIT)
[5]
  percent inhibition of basal infection of PBMCs by HIV-1 Ba-L: 70%

## CSFNIT [SEQ ID NO. 4]
[1]
  percent inhibition of basal infection: ~70%
[3]
  blocking of virus entry at a concentration lower than 100 μM: inefficient

## soluble peptide SEQ ID NO. 44 (RDKVKK)
[5]
  percent inhibition of basal infection of PBMCs by HIV-1 Ba-L: 40%

## CPDRKKKVVMVC [SEQ ID NO.3, phage insert selected from CX10C Phage Display library, tested as phage]
[4]
  phage binding to rTAT-coated microwells: specifically bind recombinant TAT protein

B1: rTAT: recombinant TAT (TAT86 III B) protein (protein)
chain: MIPVDPRLEPWKHPGSQPKTACTNCYCKKCCFHCQVCFITKALGISYGRKKRRQRRRAHQNSQTHQASLSKQPTSQPRGDPTGPKE
[6]
  increase of TAT+/gp120-LV entry: dose-response effect in increasing TAT+/gp120-LV entry

B2: TATBasMut: GST-fusion TAT HXB2 variant with the mutations R-49,52,53,55,56,57-A (protein, UniProt P04608 1-86, looked up, variant R49A R52A R53A R55A R56A R57A)
Protein Tat: MEPVDPRLEPWKHPGSQPKTACTNCYCKKCCFHCQVCFITKALGISYGAKKAAQAAAAHQNSQTHQASLSKQPTSQPRGDPTGPKE
modifications: GST fusion
notes: GST-fusion TAT HXB2 variant with the mutations R-49,52,53,55,56,57-A
[7]
  enhancement of TAT/gp120-LV entry into the cells: ineffective in enhancing virus entry
[8]
  binding to rgp120-coated microwells: retaining the ability to bind gp120

B3: TATCysMut: GST-fusion TAT HXB2 variant with the mutations C-22,25,27-A (protein, UniProt P04608 1-86, looked up, variant C22A C25A C27A)
Protein Tat: MEPVDPRLEPWKHPGSQPKTAATNAYAKKCCFHCQVCFITKALGISYGRKKRRQRRRAHQNSQTHQASLSKQPTSQPRGDPTGPKE
modifications: GST fusion
notes: GST-fusion TAT HXB2 variant with the mutations C-22,25,27-A
[7]
  enhancement of TAT/gp120-LV entry into the cells: could enhance vector entry

— patent US20060234208A1, “Novel mechanism for hiv-1 entry into host cells and peptides inhibiting this mechanism” (priority 2002, published 2006)
